Laboratory results published in IntAct's records for PubMed 29039417.

B1: Protein PTHB1 (Homo sapiens), Q3SYG4 (parent)
chain: MSLFKARDWWSTILGDKEEFDQGCLCLANVDNSGNGQDKIIVGSFMGYLRIFSPHPAKTGDGAQAEDLLLEVDLRDPVLQVEVGKFVSGTEMLHLAVLHSRKLCVYSVSGTLGNVEHGNQCQMKLMYEHNLQRTACNMTYGSFGGVKGRDLICIQSMDGMLMVFEQESYAFGRFLPGFLLPGPLAYSSRTDSFLTVSSCQQVESYKYQVLAFATDADKRQETEQQKLGSGKRLVVDWTLNIGEQALDICIVSFNQSASSVFVLGERNFFCLKDNGQIRFMKKLDWSPSCFLPYCSVSEGTINTLIGNHNNMLHIYQDVTLKWATQLPHIPVAVRVGCLHDLKGVIVTLSDDGHLQCSYLGTDPSLFQAPNVQSRELNYDELDVEMKELQKIIKDVNKSQGVWPMTEREDDLNVSVVVSPNFDSVSQATDVEVGTDLVPSVTVKVTLQNRVILQKAKLSVYVQPPLELTCDQFTFEFMTPDLTRTVSFSVYLKRSYTPSELEGNAVVSYSRPTDRNPDGIPRVIQCKFRLPLKLICLPGQPSKTASHKITIDTNKSPVSLLSLFPGFASQSDDDQVNVMGFHFLGGARITVLASKTSQRYRIQSEQFEDLWLITNELILRLQEYFEKQGVKDFACSFSGSIPLQEYFELIDHHFELRINGEKLEELLSERAVQFRAIQRRLLARFKDKTPAPLQHLDTLLDGTYKQVIALADAVEENQGNLFQSFTRLKSATHLVILLIALWQKLSADQVAILEAAFLPLQEDTQELGWEETVDAAISHLLKTCLSKSSKEQALNLNSQLNIPKDTSQLKKHITLLCDRLSKGGRLCLSTDAAAPQTMVMPGGCTTIPESDLEERSVEQDSTELFTNHRHLTAETPRPEVSPLQGVSE
partner: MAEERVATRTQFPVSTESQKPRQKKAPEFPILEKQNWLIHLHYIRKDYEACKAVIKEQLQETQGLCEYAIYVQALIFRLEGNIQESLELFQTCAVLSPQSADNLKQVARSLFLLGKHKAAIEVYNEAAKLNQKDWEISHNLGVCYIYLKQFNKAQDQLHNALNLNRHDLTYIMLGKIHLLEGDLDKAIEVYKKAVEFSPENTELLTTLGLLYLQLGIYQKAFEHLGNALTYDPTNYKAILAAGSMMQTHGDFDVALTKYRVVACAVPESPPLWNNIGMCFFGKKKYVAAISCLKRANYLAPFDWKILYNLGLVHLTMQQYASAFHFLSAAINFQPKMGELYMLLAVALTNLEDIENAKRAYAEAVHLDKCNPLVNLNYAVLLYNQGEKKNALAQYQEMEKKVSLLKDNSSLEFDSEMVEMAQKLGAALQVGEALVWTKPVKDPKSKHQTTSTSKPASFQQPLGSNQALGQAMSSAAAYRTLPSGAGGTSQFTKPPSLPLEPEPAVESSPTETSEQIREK
B2: BBSome complex member BBS2 (Homo sapiens), Q9BXC9 (parent)
chain: MLLPVFTLKLRHKISPRMVAIGRYDGTHPCLAAATQTGKVFIHNPHTRNQHVSASRVFQSPLESDVSLLSINQAVSCLTAGVLNPELGYDALLVGTQTNLLAYDVYNNSDLFYREVADGANAIVLGTLGDISSPLAIIGGNCALQGFNHEGSDLFWTVTGDNVNSLALCDFDGDGKKELLVGSEDFDIRVFKEDEIVAEMTETEIVTSLCPMYGSRFGYALSNGTVGVYDKTSRYWRIKSKNHAMSIHAFDLNSDGVNELITGWSNGKVDARSDRTGEVIFKDNFSSAIAGVVEGDYRMDGHIQLICCSVDGEIRGYLPGTAEMRGNLMDTSAEQDLIRELSQKKQNLLLELRNYEENAKAELASPLNEADGHRGIIPANTRLHTTLSVSLGNETQTAHTELRISTSNDTIIRAVLIFAEGIFTGESHVVHPSIHNLSSSICIPIVPPKDVPVDLHLKAFVGYRSSTQFHVFESTRQLPRFSMYALTSLDPASEPISYVNFTIAERAQRVVVWLGQNFLLPEDTHIQNAPFQVCFTSLRNGGHLHIKIKLSGEITINTDDIDLAGDIIQSMASFFAIEDLQVEADFPVYFEELRKVLVKVDEYHSVHQKLSADMADHSNLIRSLLVGAEDARLMRDMKTMKSRYMELYDLNRDLLNGYKIRCNNHTELLGNLKAVNQAIQRAGRLRVGKPKNQVITACRDAIRSNNINTLFKIMRVGTASS
partner: B1 chain

Variants of: B1
Settings: with bbs4_human BBS4, Q96RK4

| Variant | effect of a mutation on the interaction |
| --- | --- |
| S797K | with no effect |
| L618E | with no effect |
| L795E | with no effect |
| T836K | with no effect |
| G433E | with no effect |
| G841A | with no effect |
| D551E | with no effect |
| D551A | with no effect |
| L616A | with no effect |
| P847A | with no effect |
| P847K | with no effect |
| N576A | with no effect |
| Q471K | with no effect |
| T613E | with no effect |
| S561K | with no effect |
| Q672K | with no effect |
| D773A | with no effect |
| P875K | with no effect |
| S570K | with no effect |
| S593E | with no effect |
| T805A | with no effect |
| K594A | with no effect |
| V838A | disrupting interaction strength |

| Variant | effect of a mutation on the interaction |
| --- | --- |
| D410E | with no effect |
| L500K | with no effect |
| N503E | with no effect |
| S785E | with no effect |
| V856E | with no effect |
| N719A | disrupting interaction strength |
| P691E | with no effect |
| P691K | with no effect |
| W768K | with no effect |
| K492E | with no effect |
| P834A | with no effect |
| L692K | with no effect |
| T874E | with no effect |
| D435E | with no effect |
| I707A | with no effect |
| E644A | with no effect |
| T405A | with no effect |
| K526A | with no effect |
| I548K | with no effect |
| A831E | with no effect |
| Q798K | disrupting interaction strength |
| F673K | with no effect |
| K704A | with no effect |

| Variant | effect of a mutation on the interaction |
| --- | --- |
| I801A | disrupting interaction strength |
| S425K | with no effect |
| K803A | with no effect |
| Q764E | with no effect |
| P463K | with no effect |
| F421E | with no effect |
| S555K | with no effect |
| N716K | with no effect |
| N716A | with no effect |
| E853K | with no effect |
| E475A | with no effect |
| T763K | with no effect |
| S635E | with no effect |
| Q605E | with no effect |
| L446E | with no effect |
| P479A | with no effect |
| T771K | with no effect |
| I846K | with no effect |
| D850A | with no effect |
| P419E | with no effect |
| R587A | with no effect |

Variants of: B2
Settings: with pthb1_human BBS9, Q3SYG4

| Variant | effect of a mutation on the interaction |
| --- | --- |
| N347K | with no effect |
| N347A | with no effect |
| N347E | with no effect |
| A359E | with no effect |
| A359K | with no effect |
| I338A | with no effect |
| I338K | with no effect |
| I338E | with no effect |
| G326E | with no effect |
| G326K | with no effect |
| G326A | with no effect |
| S342K | with no effect |
| S342E | with no effect |
| S342A | with no effect |
| Q346E | with no effect |
| Q346K | with no effect |
| Q346A | with no effect |
| K344E | with no effect |
| K344A | with no effect |
| D330E | with no effect |
| D330K | with no effect |
| D330A | with no effect |

| Variant | effect of a mutation on the interaction |
| --- | --- |
| S332A | with no effect |
| S332K | with no effect |
| S332E | with no effect |
| L341E | with no effect |
| L341A | with no effect |
| L341K | with no effect |
| K360E | with no effect |
| K360A | with no effect |
| G688K | with no effect |
| E334K | with no effect |
| E334A | with no effect |
| N358K | with no effect |
| N358A | with no effect |
| N358E | with no effect |
| D336E | with no effect |
| D336A | with no effect |
| D336K | with no effect |
| M329E | with no effect |
| M329K | with no effect |
| M329A | with no effect |
| K345E | with no effect |
| K345A | with no effect |

| Variant | effect of a mutation on the interaction |
| --- | --- |
| A361K | with no effect |
| A361E | with no effect |
| L349K | with no effect |
| L349A | with no effect |
| L349E | with no effect |
| Q343E | with no effect |
| Q343K | with no effect |
| Q343A | with no effect |
| L348A | with no effect |
| L348E | with no effect |
| L348K | with no effect |
| N327K | with no effect |
| N327A | with no effect |
| N327E | with no effect |
| E357K | with no effect |
| E357A | with no effect |
| R325K | with no effect |
| R325A | with no effect |
| R325E | with no effect |
| T331A | with no effect |
| T331E | with no effect |
| T331K | with no effect |

| Variant | effect of a mutation on the interaction |
| --- | --- |
| R339K | with no effect |
| R339A | with no effect |
| R339E | with no effect |
| L363A | with no effect |
| L352K | with no effect |
| L352E | with no effect |
| L352A | with no effect |
| Q335A | with no effect |
| Q335E | with no effect |
| Q335K | with no effect |
| N354E | with no effect |
| N354K | with no effect |
| N354A | with no effect |
| A333K | with no effect |
| A333E | with no effect |
| E362Y | disrupting interaction strength |
| E362K | with no effect |
| E362A | with no effect |
| E356K | with no effect |
| E356L | disrupting interaction strength |
| E356A | with no effect |
| E356S | disrupting interaction strength |

| Variant | effect of a mutation on the interaction |
| --- | --- |
| E356P | disrupting interaction strength |
| E340K | with no effect |
| E340A | with no effect |
| L337K | with no effect |
| L337A | with no effect |
| L337E | with no effect |
| Y355E | with no effect |
| Y355A | with no effect |
| Y355K | with no effect |
| E351K | with no effect |
| E351A | with no effect |
| L328A | with no effect |
| L328K | with no effect |
| L328E | with no effect |
| L350A | with no effect |
| L350E | with no effect |
| L350K | with no effect |
| R353K | with no effect |
| R353E | with no effect |
| R353A | with no effect |

Variants of: B2
Settings: with pthb1_human BBS9, Q3SYG4
Remark: another data set of the same source

| Variant | effect of a mutation on the interaction |
| --- | --- |
| L455E | disrupting interaction strength |
| G688K | disrupting interaction strength |
| I568E | disrupting interaction strength |
| W513E | disrupting interaction strength |
| S365R | disrupting interaction strength |

Variants of: B2
Settings: with pthb1_human BBS9, Q3SYG4
Remark: another data set of the same source

| Variant | effect of a mutation on the interaction |
| --- | --- |
| L455E | with no effect |
| W513E | with no effect |
